Results on 47 sequences are retold here after the NTF2 design screens of Basanta et al. (2020).

The nature of this data set: protease stability score; higher = more stable; yeast display proteolysis, trypsin and chymotrypsin.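 Further: relative to predicted unfolded state with 0 unfolded-like and 1 meaning tenfold more protease.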
For “DLEHEITRRVLWELTESSKTGDFDRRLELLDPHARVNIDGKDFHGREEVEYLLREMEKFWGHDRVYLDVKEIEIQGDKIDVDSELTINGKKRKARLIVVKVNGRWVIHSIEVE”, the protease stability score worked out at 1.04.

With “DLYKHWTDVLLHLFLHVSRTGDEEEVVRLMDPNTLIIINGQEIHGREEIKRTFREMRVDDERLKDMDKIGNKVRVDGEVRITVDGQERTSRAHMVVLKVDGRWTIHSLRIE”, the protease stability score came to 1.77.

In the case of “DNDQEKIKELARLAEQVMQTGNEKLLRELFDPHARIDIDGKTLHGWKDLLEFTRHELERIDHVVFTVRRVDLQGDKVRVETEVNIDINGKKMTLETTLLIDKFDGRWFLRTIEWE”, the protease stability score is 1.8.

“DNEDKLAEQMLKEILELWHTGDEEKWSNLADPNTRIHINGQESHGRDNFHKFWEDFHSTLGIDVLKFSLKDFRIQGDKSRVDVETKVKQGDKSEHYRTFLIFIIVDGRVKTIEIRIK”: the protease stability score came to 0.703.

Regarding “DNEEKDNKTATKLLLDWLRTGDEESMSRNADPNTRLEIGDKEFHGREEVLRHLHELKRHFGIERFEVDIERVEIYGDKVVIHSRMNVNGQRREVIFIDRKIDGRWIFKSIELR”, the protease stability score is 1.13.

The sequence “DNEERYMIKLLHMLWLAFLTGDEELWYKLADPHVRWTFENREIHGREQFVKEQRRIKNMRIEMELKDVRVQGDKIHTDGHLEINQGDKHIHTDVRLHLVVINGRLHEFHVTLV” displayed a protease stability score of 1.54.

Regarding “DNESHLAEEWFRWFIDWMQTGNEEETRKFADPNVRFDINGVEIHGMKLYEDHIKHLGFRQDIRIRHIDTYDGQVDVDTEVRINVNGVEIRHKTRTNLIMIDGKLKTLTVKLE”, the protease stability score was found to be 1.01.

Regarding “DNKEKLMNKAFEWILELIITGDEDTLHELADPNARNHYGEFHHVGREETTRFLVEFNRRLGVDHVRFERMRVIDGKVHLHIEINVDGRRFESDLIFFKVDGRWKLNFVHFRHV”, the protease stability score worked out at 1.27.

The sequence “DNTEENTRTLLELLKRVWRTGDWSQLDKLLDPNARAEINGVELHGREKVVEVFREELERLGVEYTDSRVKDMKVQGDKAIIDLELETEQGDKTHMHDLHIETRKVDGRWFVEHIIVH” displayed a protease stability score of 1.75.

“DPREIALKLLLQIMQELEETGDFREEEKYVDPHMRIKIDGVIYHGRSAIEHEYRRFDHIHEIELKRFHVQGDKITLEGYIRGNFDGKEHNTRSILLAKKVNGRWVLTEVTWL” displayed a protease stability score of 0.801.

Sequence “DQDDHMAKEFHKLFFDAIRTGDEDLLSMLLDPHVLMNIGNFHRHGRELVVDMQRHLYEKHGFRIHNAHVERWHIFENRLIYHLKVDGKVDGKRHVMEFDLTILKVDGVWIITSITIK” yielded a protease stability score of 1.44.

“DQDEEIMRRLLKTILESWVTGDEDELRRRADPDARSDINGRKHHGRDRVVKRMHDWLRELGIDHLHIEHERIIGEKAHFDTRVHVNGKTFEMFLHFEIIDGRVRSMHVEIR” gave a protease stability score of 0.654.

As for “DQEEHEFYNVLRLFMFTLMTGDEHTLKKLLDPNARIEINGQERHGREEILHHMNRNLHEIRMKTLEVKRESVYGNYAHADTRLRGEVNGRESIVTVHIYIQVINGRIEHVHLDIK”, the protease stability score was 1.45.

For the sequence “DQEEQDIRRAIRLYLELLLTGDWKTLEKLIDPNVRLNFNGQEYHGMRDVLRLLKEILEELGIKHVHLHDERIQGDKVKVDTRVEINGKHSEVILVAEKINGKWVVHHLEHNHK”, the protease stability score was determined as 1.24.

With “DQEERDSKHALRFMEHVISTGDEHLIEELLDPHARLDINGVDVHGREEVKRTITEHRKRYKNLRIHVTDLEVVNGVVRLHTELNIGDKRFEVRWFLDKIDGRWLMTEIRIR”, the protease stability score came to 1.12.

On to “DQEEREDRKILKLLVELWRTGNEEVLEHLLDPNVKMRLEFEGREDSAHGRESMIEMLRRVWKVLGIKHERLESVHVFDGVVIITMRLSVDGREQDIQLLFFVYDGRIKSIVIRVRDR”, for which the protease stability score came to 1.45.

In turn, “DQEERIAHKVAEFFLHALLTGDERLLTEYFDPHVRIIIHINGVEIRYHGREEWVEWLRDILRRFDVVRFHIRDIRNIGNKSIVHSEHREHVNGKSRSTRTELLIDVVDGRIHEVEIRIE” displayed a protease stability score of 1.44.

Consider “DQEHEDARNVLHLLIRSWRTGDEHTSEHLMDPDVKIIYNGRVHVGREDAHRFVEEARVHHIVLHDSRVQGDYIRLDIRVEGEINGRRDRTEVDMVVLKINGRWMIQSIKFK”, for which the protease stability score amounted to 1.38.

In turn, “DQEHRDLHKLAHLILEYLVTGDFEMFEHLADPNVKVNINGKEMHGMERMREHLELIWKELRIHHLHITEVTIQGNKVEIDGRWDGKVNGQHRIEERHFYLVTVNGRIRHISEEIV” displayed a protease stability score of 1.37.

“DQHERELEHAMEMLEKILKTGDERLFEHYADPHIRLEIEINGRRIDDHGRDLVLHLWRKMGADHMNIRSIDIQGDKLILNSTIEFNGQIHRSRFISLKVNGRWFIESVRLQDT” had a protease stability score of 0.907.

In turn, “DQKKELIKKVHEHLFEDLITGDEKKLLSLADPNMRSDINGREIHGMEETSRILLELNRHWGVDRVEVHEHDMKIQGDKAIIHGTLKFNGVETTVELVILKINGVWLLKEVHFR” yielded a protease stability score of 0.76.

As for “DQLDKSMKESMTRALEHWETGNERSLENLLDPNTKVVVNGVIVHGWERMSELIHDFWRRLGIDHVEIEDIHNHIQGDKAVLNNKTVINVNGQEIKTTLIIYITKVNGRWTIHSIEIHIH”, the protease stability score came to 1.72.

Sequence “DQREETTNRALHEFIENLITGDEHELLRLLDPNTKMIWNGRENHGWKRAKTVLKEFLERIDVFKDHKLRNMELQGNKAEVEGQVIFEIDGKEVRHDLSLIFLKVDGKWMIESIEIR” gave a protease stability score of 1.34.

“DQRERDQHIALEIWLLVLETGDERYVRRYADPRMRIEVGDKEIHGREDALEFRTEELRHMRLRDFRNKSFTVIDGRVDFYGHLLIEVDGRSQIFDSRLIILKVNGRWFLESEIRH” registered a protease stability score of 1.43.

Turning to “DRDDEMTERALKEHIKNFRTGDFDKLLELADPNVRVDIDGREIHGRENFVKLVLKLMDDLGMKPEDVWVEHVNVFNGKVHMRIVLVTFYGDKRHINDTNVIATKFDGRWILKDVTMV”, the protease stability score was determined as 1.08.

“DRDEQMLRTYLHRMYESIRTGDEDSFKRLFDPNTRLHFENHHEHGWELLLRLMLRYANQADHFKLEIEDVTVQGDKAILRVHITVHVDGRDVSRSTVLYTTKVDGQWHFETVREK” had a protease stability score of 1.48.

On to “DRDQHQAEKAFKLLVDILQTGDEEEIYKMADPHMQIDFDGRLHHGRDEFVKLVSETIRKFKNIRVEIHHIEVFDGRMHTDSRIHVGDKEWTIDIHIQKVNGKWKLKHVRVD”, for which the protease stability score was 0.945.

Sequence “DREEEDYRRAWEHLHKDWKTGNEEHMERNADPNVRVEINGVERVGRELFVELMRHLVRHIRIEHVHVERSDIVNGVIILDMIVTGRIGDKSEIERVEVHTLKIDGRWLLTEVRFK” came in with a protease stability score of 0.663.

As for “DREEEELKRIMHLFINFVETGDWELILKLMDPNVKMQIDFNGKIFRNHGRDALEYTIRLMGIDHIEIHHQDVIDGKLHIDVTVHIDGQDLRVHIHVIVIDGRIREVRHRTH”, the protease stability score worked out at 1.23.

The sequence “DREEEEVRRARKLWVDWAETGDEESIFKNADPRTRVDINGKILHGMEIYKKESEKLGIDNIEFRVDDVRVFDGRLEMDGELIVNGRSIRVHIYSRKIDGRWVLTSINFI” had a protease stability score of 0.872.

Consider “DREEEHTRTLAKELFEIFLTGDFDRFSELADPNTRLRIIINGVEFRDHGMEFWQWWVDEIRIHSYRMRDMRVFNGQAILLSTSDVEFNGRRHETTVEFVLVIVNGRIKSVTIIVR”, for which the protease stability score was 1.69.

In the case of “DREEEKLLHAIKLLLHNWMTGDEDSEIDLMDPNARIVWNGVELHGMTEVRRFLHEYHRRFDVFTHTHIDHYRVIGDKAESHIRLEGSVDGRTIKHQTFILMSKYNGKWTNQTLTFE”, the protease stability score was determined as 1.13.

For the sequence “DREEHELLHAIERWLKAEETGDEHELKKLADPHTRTHIRIGDKHIERHGREDMIKVFRELGFKHHHMRSIEIQGDYVHVRGENRFDGQHITLILIFHKFDGRWILREVEVHIR”, the protease stability score was determined as 1.41.

“DREEKQAEEVATEIIRALLTGDEKWLLHLIDPNVRWIMDVNGKELTLHGWHELIKKFRDDFRHLGVERFHVHVKDWDIQGDKMHLRVTFHIDGKTFDYELIIIVINGRITSMEVREH” gave a protease stability score of 2.

Regarding “DREELLMLFLKSWLTGDEHILKELLDPHVRMDVDGVEQHGRDVLLHLLHHLSRYMGVDHHRIERFEVQGDKIFINLRIHWNGVESELEIILFVIDGKIKEVEIRSRDEDHKRMVKESWR”, the protease stability score was found to be 1.19.

As to “DREENEIREFIEKLVDAHLTGNFELMDELADPNVRIEIGDKRYHGREEYLRLMHELRIHHVEIDHIEWYNGQVHMHGTVDGVVDGRRHRIHTEMTVEKVNGRWILTEERQL”, the protease stability score amounted to 1.69.

For the sequence “DREERDTREALRILHEISRTGDEELLDRQMDPDVKIDFENHEFHGREEASTLIHEIYQKWGLSNVEMDIKRVRTVGEKVDIDGRLHFNGVTRDIRLINLKVNGKWFIHSIIFR”, the protease stability score came out at 1.2.

In turn, “DREHDELRKTWEIYSQALSTGDEDELNKLADPNTRLDIDGKELHGMEDVHRHLHHNLRRVDHIELRIHEIRYQGDFAHVDGEVIIVYDGVKKSRRVHLILTKINGRWILTSVEFR” returned a protease stability score of 1.28.

As to “DREHREREELLNETNKAIATGDEETLRRLFDPNVQIEQGEYHHHGWEWVKKLMEEMRIEVEHVHDRRVDMFENHVRVDTHVHLRFIIGDKIFHVNLRQEIVMHKVNGVWIFKSFKYH”, the protease stability score amounted to 1.4.

With “DREKEFVKEFFTMLHNVLHTGDFKLFEKMLDPRYRVEIGDKEAHGREEVLRWFHEYMRIAGIDHIELHLHNFDYQGDKVRMDTIVILIQGDKTFHLDVRIVVKKIDGQWINQTERIH”, the protease stability score came out at 1.42.

Turning to “DREKKEAEQLIRLINRYIQTGDEHSLSRLMDPHVLLQVGDKKDIGWEIIINKIKEMWEKFKGARFNLEMRDIHLQGDFAEIDVEFEILVNGQFDTLKTRFIIFKIDGRWVIRSLSLE”, the protease stability score is 2.33.

With “DRERLADELRRRLEKVMTTGDPTELDKLMDPNARILYGDQKFHGREHVKEFAKTLNDQYDHVTIRLVSYDIKNGEIHIVVDVVFRHNGQTRTKRINFVARVHGDKVKIESINIP”, the protease stability score is 1.48.

“DRERRHEEQLYRDLIHAWFTGDEEWLRKYADPHVRVEIGDKLRHGMEWLAKMREDVHRHLGIDHIHIHDHYFFDGRVHMDFRINIGDKHHNLHLHIVNVDGKVRSFRFEIH” registered a protease stability score of 1.09.

For the sequence “DRHDKELERFTSDWLTSWHTGDFHRILELLDPDVRYIYGDKEWHGRENVHRAIKELLERLGIDHLHLQRVEIQGEKFKIQTQVHVGDKTINLIIHILVVDGRVREVNMDEK”, the protease stability score was determined as 1.33.

“DRHEELNKEIAEELVHWHRTGDWEEIQRNMDPNVRMEINGVENVGRETMAEILHEWLSRIKGLRVEIKHVEIIGDKVHIHGRININGRERNTHIDLHVVNGQMHELIIKVE” had a protease stability score of 0.279.

For “DRHEETDRRAVKILLEVIRTGDFETFYRLMDPHARYEYGEKELHGRDKSLKLLEELLRRFGHDKVEVHLKTYSAIDGRMEIHSVVNYNGREHNLHIESDKVNGRWEIRDIHVL”, the protease stability score was found to be 1.09.

In turn, “DRHEKIALEMARIILELLYTGDEDTFKHLADPNVKLHLDINGRHFEHHGREEHEKWSRELERHMRITDIKIDDEKVQGDWVHIDSTIVMRIGDKSSIHKMHFIFQIVDGRIKNMEVVIK” showed a protease stability score of 1.38.
